This passage reports abundance fitness results from the Human Domainome abundance scans (Beltran et al. 2025).

± gives the uncertainty stated by the source.

B1: POU domain, class 3, transcription factor 3, residues 320 to 388; numbered along this chain, P20264 (parent)
chain: DDLEQFAKQFKQRRIKLGFTQADVGLALGTLYGNVFSQTTICRFEALQLSFKNMCKLKPLLNKWLEEAD
B2: Metastasis-associated protein MTA3, residues 265 to 317; numbered along this chain, Q9BTC8 (parent)
chain: RDEMEEWSASEASLFEEALEKYGKDFNDIRQDFLPWKSLTSIIEYYYMWKTTD

In one data set the parent is B1. In words: abundance fitness (aPCA) (normalised: wild type 0, dead -1); higher = more abundant; growth selection in yeast, the domain comes from the species named. As to conditions: Homo sapiens.
On to DDLEQFAEQFKQRRIKLGFTQADVGLALGTLYGNVFSQTTICRFEALQLSFKNMCKLKPLLNKWLEEAD [K8E], for which the abundance fitness is -0.019 ± 0.14.
On the same count and under the same terms, to DDLEQFATQFKQRRIKLGFTQADVGLALGTLYGNVFSQTTICRFEALQLSFKNMCKLKPLLNKWLEEAD [K8T] belongs -0.475 ± 0.24; to DDLEQFASQFKQRRIKLGFTQADVGLALGTLYGNVFSQTTICRFEALQLSFKNMCKLKPLLNKWLEEAD [K8S], -0.738 ± 0.23.
In the case of DDLEQFAWQFKQRRIKLGFTQADVGLALGTLYGNVFSQTTICRFEALQLSFKNMCKLKPLLNKWLEEAD [K8W], the abundance fitness is -0.42 ± 0.19.
DDLEQFAAQFKQRRIKLGFTQADVGLALGTLYGNVFSQTTICRFEALQLSFKNMCKLKPLLNKWLEEAD [K8A]: the abundance fitness is 0.001 ± 0.11.
Take DDLEQFAIQFKQRRIKLGFTQADVGLALGTLYGNVFSQTTICRFEALQLSFKNMCKLKPLLNKWLEEAD [K8I]: the abundance fitness turned out to be 0.162 ± 0.33.
Same read-out and setting: to DDLEQFAFQFKQRRIKLGFTQADVGLALGTLYGNVFSQTTICRFEALQLSFKNMCKLKPLLNKWLEEAD [K8F] belongs -0.439 ± 0.33.
For DDLEQFAVQFKQRRIKLGFTQADVGLALGTLYGNVFSQTTICRFEALQLSFKNMCKLKPLLNKWLEEAD [K8V], the abundance fitness is -0.424 ± 0.11.
Same read-out and setting: to DDLEQFAQQFKQRRIKLGFTQADVGLALGTLYGNVFSQTTICRFEALQLSFKNMCKLKPLLNKWLEEAD [K8Q] belongs -0.061 ± 0.099; to DDLEQFAGQFKQRRIKLGFTQADVGLALGTLYGNVFSQTTICRFEALQLSFKNMCKLKPLLNKWLEEAD [K8G], -0.561 ± 0.14; to DDLEQFALQFKQRRIKLGFTQADVGLALGTLYGNVFSQTTICRFEALQLSFKNMCKLKPLLNKWLEEAD [K8L], 0.022 ± 0.07.
Same read-out and setting: in the case of DDLEQFAMQFKQRRIKLGFTQADVGLALGTLYGNVFSQTTICRFEALQLSFKNMCKLKPLLNKWLEEAD [K8M] it was -0.106 ± 0.14.
Regarding DDLEQFADQFKQRRIKLGFTQADVGLALGTLYGNVFSQTTICRFEALQLSFKNMCKLKPLLNKWLEEAD [K8D], the abundance fitness is -0.705 ± 0.48.

In another data set the parent is B2. The description is as above. As to conditions: Homo sapiens.
As for RDEMEEWSASEASLFEEALEKYGKDFNDIRQDFLPWKSLTSIIEYYYMWKYTD [T51Y], the abundance fitness amounted to 0.304 ± 0.12.
In the case of RDEMEEWSASEASLFEEALEKYGKDFNDIRQDFLPWKSLTSIIEYYYMWKWTD [T51W], the abundance fitness was -0.853 ± 0.17.
Turning to RDEMEEWSASEASLFEEALEKYGKDFNDIRQDFLPWKSLTSIIEYYYMWKTDD [T52D], the abundance fitness was -0.251 ± 0.21.
Regarding RDEMEEWSASEASLFEEALEKYGKDFNDIRQDFLPWKSLTSIIEYYYMWKTRD [T52R], the abundance fitness was found to be 0.08 ± 0.069.
In the case of RDEMEEWSASEASLFEEALEKYGKDFNDIRQDFLPWKSLTSIIEYYYMWKTND [T52N], the abundance fitness stood at 0.2 ± 0.095.
Take RDEMEEWSASEASLFEEALEKYGKDFNDIRQDFLPWKSLTSIIEYYYMWKTMD [T52M]: the abundance fitness is -0.402 ± 0.13.
The same measure, in the same setting: in the case of RDEMEEWSASEASLFEEALEKYGKDFNDIRQDFLPWKSLTSIIEYYYMWKTFD [T52F] it was -0.51 ± 0.37; in that of RDEMEEWSASEASLFEEALEKYGKDFNDIRQDFLPWKSLTSIIEYYYMWKTHD [T52H], -0.405 ± 0.2; in that of RDEMEEWSASEASLFEEALEKYGKDFNDIRQDFLPWKSLTSIIEYYYMWKTAD [T52A], -0.097 ± 0.065.
For RDEMEEWSASEASLFEEALEKYGKDFNDIRQDFLPWKSLTSIIEYYYMWKTSD [T52S], the abundance fitness was -0.032 ± 0.071.
For the variant RDEMEEWSASEASLFEEALEKYGKDFNDIRQDFLPWKSLTSIIEYYYMWKTGD [T52G], the abundance fitness turned out to be 0.001 ± 0.097.
Turning to RDEMEEWSASEASLFEEALEKYGKDFNDIRQDFLPWKSLTSIIEYYYMWKTCD [T52C], the abundance fitness is 0.191 ± 0.14.
As for RDEMEEWSASEASLFEEALEKYGKDFNDIRQDFLPWKSLTSIIEYYYMWKTYD [T52Y], the abundance fitness was -0.428 ± 0.12.
For RDEMEEWSASEASLFEEALEKYGKDFNDIRQDFLPWKSLTSIIEYYYMWKTID [T52I], the abundance fitness was -0.292 ± 0.22.
With RDEMEEWSASEASLFEEALEKYGKDFNDIRQDFLPWKSLTSIIEYYYMWKTWD [T52W], the abundance fitness was -0.521 ± 0.23.
On to RDEMEEWSASEASLFEEALEKYGKDFNDIRQDFLPWKSLTSIIEYYYMWKTVD [T52V], for which the abundance fitness is -0.097 ± 0.12.
Turning to RDEMEEWSASEASLFEEALEKYGKDFNDIRQDFLPWKSLTSIIEYYYMWKTLD [T52L], the abundance fitness was -0.298 ± 0.094.
Turning to RDEMEEWSASEASLFEEALEKYGKDFNDIRQDFLPWKSLTSIIEYYYMWKTPD [T52P], the abundance fitness is -0.055 ± 0.078.
Regarding RDEMEEWSASEASLFEEALEKYGKDFNDIRQDFLPWKSLTSIIEYYYMWKTKD [T52K], the abundance fitness came out at 0.344 ± 0.1.
Same read-out and setting: to RDEMEEWSASEASLFEEALEKYGKDFNDIRQDFLPWKSLTSIIEYYYMWKTTC [D53C] belongs 0.179 ± 0.29; to RDEMEEWSASEASLFEEALEKYGKDFNDIRQDFLPWKSLTSIIEYYYMWKTTP [D53P], -0.044 ± 0.097.
As for RDEMEEWSASEASLFEEALEKYGKDFNDIRQDFLPWKSLTSIIEYYYMWKTTG [D53G], the abundance fitness turned out to be 0.066 ± 0.16.
For RDEMEEWSASEASLFEEALEKYGKDFNDIRQDFLPWKSLTSIIEYYYMWKTTY [D53Y], the abundance fitness was -0.543 ± 0.36.
For the variant RDEMEEWSASEASLFEEALEKYGKDFNDIRQDFLPWKSLTSIIEYYYMWKTTI [D53I], the abundance fitness was -0.566 ± 0.48.
Turning to RDEMEEWSASEASLFEEALEKYGKDFNDIRQDFLPWKSLTSIIEYYYMWKTTT [D53T], the abundance fitness was -0.41 ± 0.22.
The same measure, in the same setting: in the case of RDEMEEWSASEASLFEEALEKYGKDFNDIRQDFLPWKSLTSIIEYYYMWKTTN [D53N] it was 0.211 ± 0.3; in that of RDEMEEWSASEASLFEEALEKYGKDFNDIRQDFLPWKSLTSIIEYYYMWKTTR [D53R], -0.164 ± 0.39; in that of RDEMEEWSASEASLFEEALEKYGKDFNDIRQDFLPWKSLTSIIEYYYMWKTTV [D53V], -0.336 ± 0.092.
As to RDEMEEWSASEASLFEEALEKYGKDFNDIRQDFLPWKSLTSIIEYYYMWKTTA [D53A], the abundance fitness is -0.135 ± 0.095.
